Assay results reported in US20150353909.
Positions count from the first letter of the chain named. Numbers in names are those of the source.

How the values were obtained:
[1] = target: K63-tetraubiquitin chains, P0CG48
[2] = target: K48-tetraubiquitin chains, P0CG48
[3] = target: purified recombinant linear UB dimers
[4] = target: HA3-UBQ-GST [GST: P08515]
[5] = target: purified recombinant linear UB trimers
[6] = target: purified recombinant linear UB tetramers
[7] = target: T1, HA3-RUB-GST, Q9SHE7
T1 chain: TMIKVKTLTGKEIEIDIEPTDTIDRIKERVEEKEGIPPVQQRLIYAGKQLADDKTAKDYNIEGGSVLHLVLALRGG

[8] = target: HA3-SUMO-GST, P55852

Sequence of K48-tetraubiquitin chains, P0CG48 (P0CG48 whole entry, looked up): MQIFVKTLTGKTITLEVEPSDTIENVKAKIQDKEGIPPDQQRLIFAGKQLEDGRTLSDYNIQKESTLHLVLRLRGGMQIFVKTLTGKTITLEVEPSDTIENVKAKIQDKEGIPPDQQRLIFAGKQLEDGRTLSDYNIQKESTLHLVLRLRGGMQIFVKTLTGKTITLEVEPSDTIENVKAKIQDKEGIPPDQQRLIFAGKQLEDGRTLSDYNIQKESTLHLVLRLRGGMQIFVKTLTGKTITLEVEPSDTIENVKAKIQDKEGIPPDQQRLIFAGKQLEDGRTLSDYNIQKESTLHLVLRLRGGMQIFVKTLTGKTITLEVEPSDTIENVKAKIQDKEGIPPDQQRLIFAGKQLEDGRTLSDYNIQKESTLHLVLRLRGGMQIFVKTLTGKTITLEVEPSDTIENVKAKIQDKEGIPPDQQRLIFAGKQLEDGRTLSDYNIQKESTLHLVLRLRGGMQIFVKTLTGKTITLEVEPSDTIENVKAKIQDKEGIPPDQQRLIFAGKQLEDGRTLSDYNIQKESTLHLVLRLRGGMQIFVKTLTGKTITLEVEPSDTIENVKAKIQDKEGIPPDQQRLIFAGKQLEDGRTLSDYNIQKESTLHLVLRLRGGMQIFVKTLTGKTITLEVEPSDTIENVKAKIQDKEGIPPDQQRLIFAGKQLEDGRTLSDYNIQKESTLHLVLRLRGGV
Sequence of K63-tetraubiquitin chains, P0CG48 (P0CG48 whole entry, looked up): as above

B1: OTU9-NΔ1-172 (protein)
chain: AHVPKINGELPSEDEQISDHERLFQRLQLYGLVENKIEGDGNCQFRSLSDQLYRSPEHHNFVREQVVNQLAYNREIYEGYVPMAYNDYLKAMKRNGEWGDHVTLQAAADLFGVRMFVITSFKDTCYIEILPHFQKSNRLICLSFWAEVHYNSIYPEGELPIPEGKKKKKYWVF
- cleavage [1]: comparable to that catalyzed by the corresponding wild-type proteins
- cleavage [2]: comparable to that catalyzed by the corresponding wild-type proteins

B2: His-tagged OTU3 (protein)
chain: MELKSSSNNNILEQLRNGFARFELVSSPTASVSDSISSTSLPASFISTTKGNSYVFFARINSSMNRSPAAKKVEKYAVDRVKGDGRCLFRALVKGMAFNKGITLNPQRERDDADELRMAVKEVICNDPKEREKYKEALVAITVDESLKRFCQRIGRHDFWGGESELLVLSKLCKQPIIVYIPEHEHGRGGGYGPGFIPIQEYGSEFRGGWGKGKTNKNVVRLLYSGRNHYDLLR
- in vitro deubiquitylation activity [3]: -
- in vitro deubiquitylation activity [4]: ++
- in vitro deubiquitylation activity [5]: +
- in vitro deubiquitylation activity [1]: +++
- in vitro deubiquitylation activity [6]: +
- in vitro deubiquitylation activity [7]: +
- in vitro deubiquitylation activity [2]: ++
- in vitro deubiquitylation activity [8]: -

B3: OTU7a-C48S (protein)
chain: MAKTKQQKSKPKKQPHQKQGKDCDLSQFRAQLDALGLKIIQVTADGNSFFRAIADQLEGNEDEHNKYRNMIVLYIVKNREMFEPFIEDDVPFEDYCKTMDDDGTWAGNMELQAASLVTRSNICIHRNMSPRWYIRNFEDTRTRMIHLSYHDGEHYNSVRSKEDACGGPARPVVIEADAKVSAASKQAKATESKSKNKADKCHVNAGAIKVVMSGSCCDNTEKAEQVLLQVNGDVDAAIEFLIADQGMESLTENDTETASASDTINPKHASDSPMENTEQAREELIEEESASGNNSETVQAKCTTQTDDKKIPRNKTCPCGSKKKYKSCCGTATGRSSVKLLVSQTMESKKGRKNLRRGTSNEVEANAPDVGALCI
- cleavage activity [1]: completely abolished
- cleavage activity [2]: completely abolished

B4: His-tagged OTU7a (protein)
chain: B3 chain with S48C
- in vitro deubiquitylation activity [3]: -
- in vitro deubiquitylation activity [4]: ++
- in vitro deubiquitylation activity [5]: -
- in vitro deubiquitylation activity [1]: ++
- in vitro deubiquitylation activity [6]: -
- in vitro deubiquitylation activity [7]: +
- in vitro deubiquitylation activity [2]: +
- in vitro deubiquitylation activity [8]: -

B5: OTU9-NΔ 1-100 (protein)
chain: GQENQGEAIDITQESDILHNHNGNMEDKNVARIRFEGGQSSPSRDDDSVCSVEIEEESWSEVGKRLNQMIPIAHVPKINGELPSEDEQISDHERLFQRLQLYGLVENKIEGDGNCQFRSLSDQLYRSPEHHNFVREQVVNQLAYNREIYEGYVPMAYNDYLKAMKRNGEWGDHVTLQAAADLFGVRMFVITSFKDTCYIEILPHFQKSNRLICLSFWAEVHYNSIYPEGELPIPEGKKKKKYWVF
- cleavage [1]: comparable to that catalyzed by the corresponding wild-type proteins
- cleavage [2]: comparable to that catalyzed by the corresponding wild-type proteins

B6: GST-OTU4c-C136S (protein)
chain: MMICYSPITTCSRNAISIKRHLGSRLYGVVAHGSSKFSCYSLLSGLSRRHYTGFRVSVSNRPSSWHDKGLFGFAYTGVIVSLLVCYSSTSQSAYADSSRDKDANNVHHHSSDGKFHNGKRVYTDYSIIGIPGDGRSLFRSVAHGFCLRSGKLAPGEKMQRELADELRTRVADEFIQRRQETEWFVEGDFDTYVRQIRDPHVWGGEPELFMASHVLQMPITVYMKDDKAGGLISIAEYGQEYGKDDPIRVLYHGFGHYDALLLHESKASIPKSKL
- linear UB polymer cleavage activity [3]: generally abolished
- fusion protein cleavage activity [4]: generally abolished
- linear UB polymer cleavage activity [5]: generally abolished
- cleavage activity [1]: completely abolished
- linear UB polymer cleavage activity [6]: generally abolished
- fusion protein cleavage activity [7]: generally abolished
- cleavage activity [2]: completely abolished

B7: GST-OTU4c (protein)
chain: B6 chain with S136C
- in vitro deubiquitylation activity [3]: -
- in vitro deubiquitylation activity [4]: ++
- in vitro deubiquitylation activity [5]: ++
- in vitro deubiquitylation activity [1]: +++
- in vitro deubiquitylation activity [6]: ++
- in vitro deubiquitylation activity [7]: +
- in vitro deubiquitylation activity [2]: +++
- in vitro deubiquitylation activity [8]: -

B8: OTU10-NΔ1-173 (protein)
chain: RLNQMVPIPYIPKINGEIPPEEEAVSDHERLRNRLEMFDFTEVKVPGDGNCQFRALADQLYKTADRHKHVRRQIVKQLKSRPDSYQGYVPMDFSDYLRKMSRSGEWGDHVTLQAAADAYRVKIVVLTSFKDTCYIEILPTSQESKGVIFLSFWAEVHYNAIYLNRDTSETELQRKRKWWRFGN
- cleavage [1]: comparable to that catalyzed by the corresponding wild-type proteins
- cleavage [2]: comparable to that catalyzed by the corresponding wild-type proteins

B9: His-tagged OTU2 (protein)
chain: MEGIIVRRVIPSDNSCLFNAIGYVMDKDKNKAPELRQVIAAAVASNKEKYNEAFLGKLNEEYCAWILNPDKWGGAIELSILADYYGREIAAYDIQTSRCDLYGQTRNYDERVMLIYDGLHYDALALSPFEGAEEDFDMTIYPVGKDRSIGSIEGLALNLVKDQQRKRSYTDTANFTLRCGVCQIGVIGQKEAVEHAQATGHVNFQEYK
- in vitro deubiquitylation activity [3]: -
- in vitro deubiquitylation activity [4]: -
- in vitro deubiquitylation activity [5]: -
- in vitro deubiquitylation activity [1]: +
- in vitro deubiquitylation activity [6]: -
- in vitro deubiquitylation activity [7]: -
- in vitro deubiquitylation activity [2]: +
- in vitro deubiquitylation activity [8]: -

B10: OTU1-C92S (protein)
chain: MQNQIDMVKDEAEVAASISAIKGEEWGNCSSVEDQPSFQEEEAAKVPYVGDKEPLSSLAAEYQSGSPILLEKIKILDSQYIGIRRTRGDGNSFFRSFMFSYLEHILESQDRAEVDRIKVNVEKCRKTLQNLGYTDFTFEDFFALFLEQLDDILQGTEESISYDELVNRSRDQSVSDYIVMFFRFVTAGDIRTRADFFEPFITGLSNATVDQFCKSSVEPMGEESDHIHITALSDALGVAIRVVYLDRSSCDSGGVTVNHHDFVPVGITNEKDEEASAPFITLLYRPGHYDILYPKPSCKVSDNVGK
- linear UB polymer cleavage activity [3]: generally abolished
- linear UB polymer cleavage activity [5]: generally abolished
- cleavage activity [1]: completely abolished
- linear UB polymer cleavage activity [6]: generally abolished
- cleavage activity [2]: completely abolished

B11: OTU1-D89E (protein)
chain: B10 chain with D89E, S92C
- linear UB polymer cleavage activity [3]: to a similar extent as the wild-type protein
- linear UB polymer cleavage activity [5]: to a similar extent as the wild-type protein
- cleavage activity [1]: completely abolished
- linear UB polymer cleavage activity [6]: to a similar extent as the wild-type protein
- cleavage activity [2]: completely abolished

B12: OTU1-H288R (protein)
chain: B10 chain with S92C, H288R
- linear UB polymer cleavage activity [3]: generally abolished
- linear UB polymer cleavage activity [5]: generally abolished
- cleavage activity [1]: completely abolished
- linear UB polymer cleavage activity [6]: generally abolished
- cleavage activity [2]: completely abolished

B13: OTU10-NΔ1-125 (protein)
chain: EWIGNDNDQDGRSDDSVNVFSCSSPSDTDEYVYSWESDQCDADGEFGRRLNQMVPIPYIPKINGEIPPEEEAVSDHERLRNRLEMFDFTEVKVPGDGNCQFRALADQLYKTADRHKHVRRQIVKQLKSRPDSYQGYVPMDFSDYLRKMSRSGEWGDHVTLQAAADAYRVKIVVLTSFKDTCYIEILPTSQESKGVIFLSFWAEVHYNAIYLNRDTSETELQRKRKWWRFGN
- cleavage [1]: comparable to that catalyzed by the corresponding wild-type proteins
- cleavage [2]: comparable to that catalyzed by the corresponding wild-type proteins

B14: OTU4c-NΔ (protein)
chain: SGLSRRHYTGFRVSVSNRPSSWHDKGLFGFAYTGVIVSLLVCYSSTSQSAYADSSRDKDANNVHHHSSDGKFHNGKRVYTDYSIIGIPGDGRCLFRSVAHGFCLRSGKLAPGEKMQRELADELRTRVADEFIQRRQETEWFVEGDFDTYVRQIRDPHVWGGEPELFMASHVLQMPITVYMKDDKAGGLISIAEYGQEYGKDDPIRVLYHGFGHYDALLLHESKASIPKSKL
- catalytic activities [3]: did not modify
- catalytic activities [4]: did not modify
- catalytic activities [5]: did not modify
- catalytic activities [1]: did not modify
- catalytic activities [6]: did not modify
- catalytic activities [7]: did not modify
- catalytic activities [2]: did not modify
